Measured values: paper doi:10.1101/2023.02.28.530553

T1: MBP-OsRFL (Oryza sativa L., UniProt Q0JAI1 1-389)
T1 sequence: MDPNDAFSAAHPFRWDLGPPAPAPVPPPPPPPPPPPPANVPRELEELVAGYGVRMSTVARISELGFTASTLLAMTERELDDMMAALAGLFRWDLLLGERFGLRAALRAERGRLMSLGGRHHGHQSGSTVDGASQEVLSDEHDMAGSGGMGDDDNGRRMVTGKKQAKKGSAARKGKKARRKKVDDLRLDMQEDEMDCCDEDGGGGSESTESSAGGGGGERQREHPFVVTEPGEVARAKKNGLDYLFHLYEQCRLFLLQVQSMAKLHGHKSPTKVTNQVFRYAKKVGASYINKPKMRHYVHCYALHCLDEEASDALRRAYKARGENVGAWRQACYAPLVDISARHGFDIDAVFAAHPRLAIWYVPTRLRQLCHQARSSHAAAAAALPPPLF

B1: OsMOC1 promoter probe (EMSA/OsMOC1) (dsDNA)
DNA 1: TGGTGTTACCACTGGCTTGATCA
DNA 2: TGATCAAGCCAGTGGTAACACCA
B2: OsRFL promoter NRE probe (EMSA/OsRFL-3) (dsDNA)
DNA 1: TAATACTGTTGTTTGATACTAATGAGTCAAGTTG
DNA 2: CAACTTGACTCATTAGTATCAAACAACAGTATTA

Experiments:
[1] = biological target: T1, MBP-OsRFL; experiment: EMSA
[2] = biological target: MBP-OsNLP3 (Oryza sativa L., UniProt Q5NB82 1-938); experiment: EMSA
Sequence of MBP-OsNLP3 (Q5NB82 whole entry): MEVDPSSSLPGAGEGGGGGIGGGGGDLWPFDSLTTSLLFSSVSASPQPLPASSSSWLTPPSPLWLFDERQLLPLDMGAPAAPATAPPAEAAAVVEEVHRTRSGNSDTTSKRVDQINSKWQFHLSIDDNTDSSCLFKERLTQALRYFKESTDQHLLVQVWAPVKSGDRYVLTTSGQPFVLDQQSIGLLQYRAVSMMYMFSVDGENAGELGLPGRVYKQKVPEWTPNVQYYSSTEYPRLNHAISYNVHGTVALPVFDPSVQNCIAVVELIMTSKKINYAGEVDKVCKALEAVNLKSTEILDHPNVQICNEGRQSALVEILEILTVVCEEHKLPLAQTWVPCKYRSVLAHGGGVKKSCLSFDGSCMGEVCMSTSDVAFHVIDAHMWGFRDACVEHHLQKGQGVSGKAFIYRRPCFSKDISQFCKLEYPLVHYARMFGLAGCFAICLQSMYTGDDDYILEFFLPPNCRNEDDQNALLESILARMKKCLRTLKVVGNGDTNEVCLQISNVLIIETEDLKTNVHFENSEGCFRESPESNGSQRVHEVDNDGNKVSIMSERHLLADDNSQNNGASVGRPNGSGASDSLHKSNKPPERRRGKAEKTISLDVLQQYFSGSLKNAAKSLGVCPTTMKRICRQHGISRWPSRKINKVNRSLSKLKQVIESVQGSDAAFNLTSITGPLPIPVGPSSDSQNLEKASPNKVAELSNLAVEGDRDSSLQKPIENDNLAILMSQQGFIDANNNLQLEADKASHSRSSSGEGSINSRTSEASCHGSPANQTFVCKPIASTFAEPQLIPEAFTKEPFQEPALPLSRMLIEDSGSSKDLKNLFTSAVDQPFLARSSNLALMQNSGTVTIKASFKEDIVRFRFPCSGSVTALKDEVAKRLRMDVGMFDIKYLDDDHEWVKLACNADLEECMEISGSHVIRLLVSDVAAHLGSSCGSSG

Binder | binding result [1] | binding result [2]
B1 | binds | –
B2 | – | binds
